T1: canine CD20 on cells (HEK293, MDCK II, CLBL-1 or native B cells) (canine, UniProt Q3C2E2 1-297)
T1 construct: also called dCD20; cCD20
T1 chain: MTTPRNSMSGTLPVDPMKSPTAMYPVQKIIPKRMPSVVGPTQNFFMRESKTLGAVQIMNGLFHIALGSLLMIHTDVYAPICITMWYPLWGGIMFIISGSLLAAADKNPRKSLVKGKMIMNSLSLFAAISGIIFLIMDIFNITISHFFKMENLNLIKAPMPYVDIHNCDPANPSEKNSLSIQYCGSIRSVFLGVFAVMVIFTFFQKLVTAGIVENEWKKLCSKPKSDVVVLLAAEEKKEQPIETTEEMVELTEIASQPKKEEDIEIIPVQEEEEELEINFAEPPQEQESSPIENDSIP

B1: PMX186 (monospecific anti-canine CD3, canine IgG-B effector function deficient Fc) (antibody)
heavy: EVKLVESGGDLVKPGGSLRLSCVASGVTFSRYYMSWVRQAPGKGLQWVAYINSGGSTTSYADAVKGRFTISRDNAKNTLYLQMNSLRAEDTAVYYCASEGVGEIYGYKDFGMDYWGHGTSLFVSSASTTAPSVFPLAPSCGSTSGSTVALACLVSGYFPEPVTVSWNSGSLTSGVHTFPSVLQSSGLYSLSSMVTVPSSRWPSETFTCNVAHPASKTKVDKPVPKRENGRVPRPPDCPKCPAPESLGGPSVFIFPPKPKDTLLIARTPEVTCVVVDLGREDPEVQISWFVDGKQMQTAKTQPREEQFNGTYRVVSVLPIGHQDWLKGKQFTCKVNHIGLPSPIERTISKARGQAHQPSVYVLPPSREELSKNTVSLTCLIKDFFPPDIDVEWQSNGQQEPESKYRTTPPQLDEDGSYFLYSKLSVDKSRWQRGDTFICAVMHEALHNHYTQKSLSHSPGK
VL: SYVLTQLPSKNVTLKQPAHITCGGDNIGSKSVHWYQQKLGQAPVLIIYYDSRRPTGIPERFSGANSGNTATLTISGALAEDEADYYCQVWDSSAKAWVFGEGTQLTVL
B2: PMX200 (monospecific anti-canine CD3, canine IgG-B effector function deficient Fc) (antibody, V domains shown)
VH: ELTLQESGPGLVKPSQTLSLTCIVSGGSVTSSYYWNWIRQSPGRGLEWMGYWTGNTNYNPALQGRIFITADTAKNQFSLQLRSMTTEDTAVYYCARGGYGYHYGMDYWGHGTSVFVSS
VL: SYVLTQLPSKSVALKQPAHITCGGDNIGSKRVHWYQQKLGQAPALIISFDNSRPTGIPERFSGANSGNTATLTISGALAEDEADYYCQVWDSTAKASIFGGGTHLTVL
B3: PMX190 (monospecific anti-canine CD3, canine IgG-B effector function deficient Fc) (antibody)
heavy: EVQLVESGGDLVKPGGSLRLSCVASGFTFSSYQMSWVRQAPGKGLQWVAYISSGGGRTTYADAVRGRLTISRDNAKNTLYLQMNSLRAEDAAVYYCAREGGGEIYGYKDYGMDYWGHGTSLFVSSASTTAPSVFPLAPSCGSTSGSTVALACLVSGYFPEPVTVSWNSGSLTSGVHTFPSVLQSSGLYSLSSMVTVPSSRWPSETFTCNVAHPASKTKVDKPVPKRENGRVPRPPDCPKCPAPESLGGPSVFIFPPKPKDTLLIARTPEVTCVVVDLGREDPEVQISWFVDGKQMQTAKTQPREEQFNGTYRVVSVLPIGHQDWLKGKQFTCKVNHIGLPSPIERTISKARGQAHQPSVYVLPPSREELSKNTVSLTCLIKDFFPPDIDVEWQSNGQQEPESKYRTTPPQLDEDGSYFLYSKLSVDKSRWQRGDTFICAVMHEALHNHYTQKSLSHSPGK
VL: SYVLTQLPSKNVTLKQPAHITCGGDNIGSKSVHWYQQKLGQAPVLIIYYDSSRPTGIPERFSGANSGNTATLTISGALAEDEADYYCQVWDSSAKAWVFGEGTQLTVL
B4: PMX191 (monospecific anti-canine CD3, canine IgG-B effector function deficient Fc) (antibody, V domains shown)
VH: EVQLVESGGDLVKPAGSLRLSCVASGFTFSDYSMSWVRQGPEKGLQLVAGMNSDGSTTYYTDAVRGRFTISRDNAKNTMYLQMNSLRDEDTAIYYCAKGAAAPDYWGQGTLVTVSS
VL: SYELTQPPSVNVTLRETAHITCGGDRIGSKYVQWIQQIPGQAPVVIIYKDNNRPTGIPERFSGANSGNTATLTISGALAEDEADYYCQVGDNYTWVFGEGTQLTVL
B5: PMX192 (monospecific anti-canine CD3, canine IgG-B effector function deficient Fc) (antibody, V domains shown)
VH: EVQLVESGGDLVKPAGSLRLSCVASGFTFSDYSMSWVRQAPEKGLQLVAGINGDGSTTYYTDAVKGRFTISRDNAKNTVYLQMNSLRAEDTAMYYCAKGAGTGDFWGQGTLVTVSS
VL: SYELTQPPSVNVTLRETAHITCGGASIGRKYVQWIQQIPGQAPVVIIYKDSNRPTGIPERFSGANSGNTATLTISGALAEDEADYYCQVGDSGAWVFGEGTQLTVL
B6: PMX227 (monospecific anti-canine CD20, canine IgG-B, lambda C5) (antibody, V domains shown)
VH: EMQLVESGGALVKPGGSLRLSCVASGFTFRRYHMSWVRQAPGQGLQWVAYIDSDGSPTSYGDSVKGRFTISRDNAKNTLFLQMNSLRVDDTAVYYCTTLDYWGRGTLVTVSS
VL: SYVLTQVPSKNVTLKQPAHITCGGDNIGGKSVHWYQQKLGQAPLLIIYYDTRRPTGIPERFSGANSGNTATLTISRALAEDEADYYCQVWDSSGNVFGGGTHLTVIG
B7: PMX228 (monospecific anti-canine CD20, canine IgG-B, lambda C5) (antibody, V domains shown)
VH: EVQLVQSGGDLVKPGGSLRLSCVASGYTFTRYHMSWVRQAPGKGLQWVAFINSDGTGITYGDAVKGRFTISRDNAKNTLYLQMNSLRAEDTAIYYCTTFDSWGQGTLVTVSS
VL: SYVLTQLPSKNVTLKQPAHITCGGDNIGSKSVHWYQQKLGQAPILIIYYDSRRPTGIPERFSGANSGNTATLTISGALAEDEADYYCQVWDSSGNVFGGGTHLTVLG
B8: PMX265 (monospecific anti-canine CD20, canine IgG-B, lambda C5) (antibody, V domains shown)
VH: EVQLVQSGGDLVKPGGSLRLSCVASGYTFSRYHMSWVRQAPGKGLQWVAFINSDGTGITYGDAVKGRFTISRDNAKNTLYLQMNSLRAEDTAIYYCTTFDSWGQGTLVTVSS
VL: SYVLTQLPSKNVTLKQPAHITCGGDNIGSKSVHWYQQKLGQAPILIIYYDSRRPTGIPERFSGANSGNTATLTISGALAEDEADYYCQVWDSSGNVFGGGTHLTVLG
B9: PMX229 (monospecific anti-canine CD20, canine IgG-B, lambda C5) (antibody, V domains shown)
VH: EVQLVESGGDLVKPGGSLRLSCVASGITFSRYHMSWVRQAPGKGLQWVAFINTGRSSTNYADAVAGRFTISRDNAKNTLYLQMNGLTVEDTAVYYCSTLDYWGQGTLVTVSS
VL: SYVLTQLPSKSVTLKQPAHITCGGDNIGSKSVHWYQQKLGQAPILIIYYDNNRPTGIPERFSGANSGNTATLTISGALAEDEADYYCHVWDSSVNVFGGGTHLTVLG
B10: PMX230 (monospecific anti-canine CD20, canine IgG-B, lambda C5) (antibody, V domains shown)
VH: EVHLVESGGDLVKPGGSLRLSCVASGITFNRYYMNWVRQTPGKGLQWVAYIDSGGSPTTYADAVKGRFTISRDNAKNTLYLQMNSLRAEDTAVYYCTSFDYWGQGTLVTVSS
VL: SYVLTQLPSKNVTLKQPAHITCGGDNIGSKSVHWYQQKLGQAPILIIYYDTSRPTGIPERFSGANSGNTATLTISGALAEDEADYYCQVWDSSANVFGGGTHLTVLG
B11: PMX231 (monospecific anti-canine CD20, canine IgG-B, lambda C5) (antibody, V domains shown)
VH: EVQLVESGGDLVKPGGSLRLSCVASGLTFSRYHMSWIRQAPGKGLQWVAYISSGGSSTNYAGSVKGRFTVSRDNAKNTLYLQMNSLRAEDTAVYYCTSLDYWGQGTLVTVSS
VL: SYVLTQLPSKNVTLKQPAHITCGGDNIGSKSVHWYQQKLGQAPVLIIYYDSRRPTGIPERFSGANSGNTATLTISGALAEDEADYYCQVWDSSDNVFGGGTHLTVLG
B12: PMX234 (monospecific anti-canine CD20, canine IgG-B, lambda C5) (antibody, V domains shown)
VH: ELQLVESGGDLVKPGGSLRLSCVASGFTFSRYYLNWVRQAPGKGLQWVAFITSGGSSTNYADAVKGRFTISRDNAKNTLYLQMNSLRAEDTAVYYCTSFDSWGQGTLVTVSS
VL: SYVLTQLPSKNVTLKQPAHITCGGDNIGSKSVHWYQQKLGQAPVLIIYYDSSRPTGIPERFSGANSGNTATLTISGALAEDEADYYCQVWDSSANVFGGGTHLTVLG
B13: PMX236 (antibody, V domains shown)
VH: EVQLVESGGDLVKPGGSLRLSCVASGLTFSRYYMNWVRQAPGKGLQWVAYIDSGGSPTNYADAVKGRFTISRDNAKNTLYLQMNSLRAEDTAVYYCSSFDYWGQGTLVTVSS
VL: SYVVTQLPSNTVTLKQPAHITCGGDNIGSKSVHWYQQKLGQAPVLIIYYDSRRPTGIPERFSGANSGNTATLTISGALAEDEADYYCQVWDSSANVFGGGTHLTVLG
notes: also called PMX236 (monospecific anti-canine CD20, canine IgG-B, lambda C5)

Legend:
[1] = biological target: canine CD3 on canine T cells (canine PBMC) (canine, UniProt P27597 22-202); assay: cell-based or functional assay
[2] = biological target: T1, canine CD20 on cells (HEK293, MDCK II, …); assay: flow cytometry, canine CD20 HEK293 cells, 10 µg/ml, FITC anti-canine IgG
Method: A CD20 binding screen was performed on candidate proteins produced from the canine CD20 immunisation as described in Examples 2 and 3. CHO cells supernatants containing candidate antibodies were diluted to 10 μg/ml in FACS buffer (PBS containing 3% FBS) and screened for their ability to bind canine CD20 expressed on cell surface. In brief, 1-2×10⁵ canine CD20-expressing HEK cells were incubated with candidate mAbs for one hour at 4° C., at a fixed concentration of 10 μg/ml followed by incubation with 5 μg/ml of FITC-conjugated anti-canine IgG secondary antibody (Bethyl Laboratories) for 1 hour at 4° C. Cells incubated with anti-canine IgG FITC secondary antibody and without primary anti-canine CD20 antibody, or with isotype control primary antibody, were used as negative controls. The data were acquired on either a Beckman Coulter CytoFLEX or a BD Accuri C6 Plus flow cytometer and analysed using FlowJo software.

canine CD3 on canine T cells (canine PBMC), sequence (P27597 22-202 limits assumed, chain 1 of 3): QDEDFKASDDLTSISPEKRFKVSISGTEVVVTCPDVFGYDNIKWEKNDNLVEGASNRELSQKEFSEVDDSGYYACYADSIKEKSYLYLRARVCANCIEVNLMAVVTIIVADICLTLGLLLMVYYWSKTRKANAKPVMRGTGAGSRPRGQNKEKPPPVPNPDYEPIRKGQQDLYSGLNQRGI
canine CD3 on canine T cells (canine PBMC), sequence (chain, as listed by the source limits assumed, chain 2 of 3): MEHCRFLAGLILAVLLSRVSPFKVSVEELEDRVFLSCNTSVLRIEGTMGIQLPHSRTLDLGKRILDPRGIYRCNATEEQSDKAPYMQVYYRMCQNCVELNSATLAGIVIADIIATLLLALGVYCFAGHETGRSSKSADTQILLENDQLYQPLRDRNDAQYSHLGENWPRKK
canine CD3 on canine T cells (canine PBMC), sequence (chain, as listed by the source limits assumed, chain 3 of 3): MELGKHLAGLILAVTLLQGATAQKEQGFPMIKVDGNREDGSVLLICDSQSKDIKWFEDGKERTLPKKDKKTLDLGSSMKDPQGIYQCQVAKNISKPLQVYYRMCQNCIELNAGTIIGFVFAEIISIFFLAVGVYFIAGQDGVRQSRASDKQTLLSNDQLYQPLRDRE

CD25 Activation, Day 6, IS [1] | CD25 Activation, Day 6, PB [1] | CD25 Activation, Day 9, IS [1] | CD25 Activation, Day 9, PB [1] | IFNy Concentration pg/ml, Day 6, IS [1] | IFNy Concentration pg/ml, Day 9, IS [1] | IFNy Concentration pg/ml, Day 9, PB [1] | Ki67 Proliferation, Day 6, IS [1] | Ki67 Proliferation, Day 6, PB [1] | Ki67 Proliferation, Day 9, IS [1] | Ki67 Proliferation, Day 9, PB [1] | binding result [2] | Binder
10.5 | 20 | 10.9 | 17.6 | 27.7 pg/mL | 217 pg/mL | 1220 pg/mL | 2.63 | 0.2 | 1.09 | 0.74 |  | B1
8.83 | 19.5 | 13.1 | 15 | 59.6 pg/mL | 363 pg/mL | 822 pg/mL | 0.76 | 2.92 | 1.29 | 0.78 |  | B2
11.3 | 14.8 | 13.5 | 11.8 | 54.4 pg/mL | 384 pg/mL | 699 pg/mL | 0.73 | 0.98 | 0.9 | 2.73 |  | B3
8.97 | 10.5 | 14.2 | 14.9 | 31.9 pg/mL | 370 pg/mL | 744 pg/mL | 0.66 | 0.35 | 2.89 | 0.6 |  | B4
10.4 | 12.7 | 10.3 | 11.3 | 75.9 pg/mL | 210 pg/mL | 758 pg/mL | 1.29 | 0.66 | 3.65 | 1.56 |  | B5
 |  |  |  |  |  |  |  |  |  |  | binds | B6
 |  |  |  |  |  |  |  |  |  |  | binds | B7
 |  |  |  |  |  |  |  |  |  |  | binds | B8
 |  |  |  |  |  |  |  |  |  |  | binds | B9
 |  |  |  |  |  |  |  |  |  |  | binds | B10
 |  |  |  |  |  |  |  |  |  |  | binds | B11
 |  |  |  |  |  |  |  |  |  |  | binds | B12
 |  |  |  |  |  |  |  |  |  |  | binds | B13
